For series [1], the system named is bLPL. Kind of series: Protein stability by differential scanning fluorimetry (nano-DSF, turbidity). The conditions noted are these: 10 μM bLPL with 15 μM GPIHBP1 variant; 10 mM HEPES, 150 mM NaCl pH 7.4; 1°C/min, 15−95°C; back-reflection turbidity; triplicates. On the set-up: species or system bovine. The procedure:
The thermostability of bLPL in the presence or absence of GPIHBP1 was measured by differential scanning fluorometry (nano-DSF) with a Prometheus Panta (Nanotemper Technologies) using a previously published method ([22]). In brief; 10 μM bLPL alone or in the presence of 15 μM GPIHBP1^1–131, 15 μM GPIHBP1^Cluster1-neutral, or 15 μM GPIHBP1^Cluster2-neutra1 were prepared in 10 mM HEPES, 150 mM NaCl (pH 7.4) and heated in capillaries with a ramping temperature of 1°C/min from 15−95°C. Turbidity was measured by assessing back-reflection and was used as a surrogate marker for thermal unfolding ([20]). All samples were measured in triplicates.
Next, we probed if recombinant GPIHBP1^1–131 with defined neutralizations of charge-clusters 1 or 2 had distinct impacts on their ability to protect bLPL from ANGPTL4-mediated inactivation. […]
Fig. 4 GPIHBP1 clusters 1 and 2 have distinct impacts on LPL stability and inactivation by ANGPTL4. […] LPL activity was measured by the release of free fatty acids from Intralipid using the NEFA 2 assay. […] B: Thermostability of 10 μM bLPL in the presence of 15 μM of the different GPIHBP1 charge variants using Tturbidity measured by Prometheus Panta™ as a surrogate marker for unfolding ([20]).
A general note: In DSF a fluorescence change marks the thermal transition of the protein.

For another series, the system named is human LPL. Kind of series: Native PAGE binding to human LPL. The conditions noted are these: 4 µM LPL with 18 µM GPIHBP1, 30 min on ice; Coomassie staining. The procedure:
Distinct impacts of disordered acidic clusters in GPIHBP1
To confirm interactions between puri fi ed human GPIHBP11–131, G P IH B P 1 Cluster1-neutral, or GPIHBP1 Cluster2-neutral with human, mouse, and bovine LPL, these protein pairs were incubated for 30 min on ice (4 µM LPL with 18 µM GPIHBP1) before they were analyzed by native PAGE. As th ese concentrations were well above t he K D of 0.2 nM for the wildtype LPL•GPIHBP1 interaction, LPL is saturated with GPIHBP1 in these experiments (1). […]
spect r a for the purified GPIHBP1 variants wer e r ecor ded at 25°C in Helman cuvettes (path- length of 1 mm) with a scan rate of 50 nm/ min c ove r i ng the range of 190- 250 nm, averaging three scans for each protein. Spectra for the pr ote i ns were compared after converting to molar ellipticity using the following equation, […] where, Mw is the molecular weight of the protein, c is the protein concentration in g/l, l is the pat h-length of the cuvette, Nr number of amino acid residues in the protein.
Figure S1 : Binding of GPIHBP1 charge mutants to LPL as assessed by Native PAGE. The electrophoretic mobility of GPIHBP1 variants alone or in presence of purified human LPL ( A), b ovine LPL (B), and murine LPL (C) was assessed by native PAGE followed by Coomassie blue staining. […]

The test system of series [2] is bLPL. Kind of series: Lipase activity assay, protection against ANGPTL4-catalyzed LPL inactivation. The format is biochemical, bovine. The settings on record: 30 nM bLPL, 30 nM ANGPTL4, 300 nM GPIHBP1 variant, room temperature up to 60 min; Intralipid, NEFA; triplicates.

B1: GPIHBP1^Cluster2-neutral: GPIHBP1 mutant with all Glu/Asp replaced by Gln/Asn at residues 19–30 (protein)
chain: QTQQEEEEEDEDHGPDDYNQQNQNQVQQQQTNRLPGGGSRVLLRCYTCKSLPRDERCNLTQNCSHGQTCTTLIAHGNTESGLLTTHSTWCTDSCQPITKTVEGTQVTMTCCQSSLCNVPPWQSSRVQDPTG
modifications: Tyr18 sulfation absent; one bi-antennary N-linked glycosylation; left off: uPAR domain III, N-terminal, cleaved
Consider B1, for which the “Tturbidity (thermal unfolding and aggregation of bLPL)” value in the series on bLPL [1] amounted to 48.8 ± 0.1 °C. Besides, the “binding to hLPL as judged by native PAGE” value in the series with human LPL is “bound”.

B2: GPIHBP1^Cluster1-neutral: GPIHBP1 mutant with all Glu/Asp replaced by Gln/Asn at residues 1–17 (protein)
chain: QTQQQQQQQNQNHGPNNYDEEDEDEVEEEETNRLPGGGSRVLLRCYTCKSLPRDERCNLTQNCSHGQTCTTLIAHGNTESGLLTTHSTWCTDSCQPITKTVEGTQVTMTCCQSSLCNVPPWQSSRVQDPTG
modifications: Tyr18 sulfation present in less than 40%; one bi-antennary N-linked glycosylation; left off: uPAR domain III, N-terminal, cleaved
With B2, the “Tturbidity (thermal unfolding and aggregation of bLPL)” value in the series on bLPL [1] was 50.4 ± 0.2 °C. Further, the “protection of bLPL from ANGPTL4-mediated inactivation (time-dependent decay of LPL activity)” value in the series on bLPL [2] is on record as “greater efficacy than GPIHBP1^Cluster2-neutral”. In addition, the “binding to hLPL as judged by native PAGE” value in the series on human LPL was “bound”.

(Values after paper PMC11869522, “Competitive displacement of lipoprotein lipase from heparan sulfate is orchestrated by a disordered acidic cluster in GPIHBP1” (Journal of Lipid Research, 2025).)
